Each block holds one binder with its values, some of them ahead of it.
How the values were obtained:
[1] = target: T1, full-length human Apaf-1 (residues 1–1248) (human, UniProt O14727 1-1248); test: ITC; Apaf-1 4 μM, CytC 60 μM; 100 mM KCl, 20 mM HEPES pH 7.5; 22°C; VP-ITC; settings: both partners purified
T1 construct: Seven copies stand in the apoptosome that forms with CytC and dATP; source: Hi-5 insect cells (baculovirus), purified (Ni-NTA, gel filtration Superose 6)
T1 sequence (looked up): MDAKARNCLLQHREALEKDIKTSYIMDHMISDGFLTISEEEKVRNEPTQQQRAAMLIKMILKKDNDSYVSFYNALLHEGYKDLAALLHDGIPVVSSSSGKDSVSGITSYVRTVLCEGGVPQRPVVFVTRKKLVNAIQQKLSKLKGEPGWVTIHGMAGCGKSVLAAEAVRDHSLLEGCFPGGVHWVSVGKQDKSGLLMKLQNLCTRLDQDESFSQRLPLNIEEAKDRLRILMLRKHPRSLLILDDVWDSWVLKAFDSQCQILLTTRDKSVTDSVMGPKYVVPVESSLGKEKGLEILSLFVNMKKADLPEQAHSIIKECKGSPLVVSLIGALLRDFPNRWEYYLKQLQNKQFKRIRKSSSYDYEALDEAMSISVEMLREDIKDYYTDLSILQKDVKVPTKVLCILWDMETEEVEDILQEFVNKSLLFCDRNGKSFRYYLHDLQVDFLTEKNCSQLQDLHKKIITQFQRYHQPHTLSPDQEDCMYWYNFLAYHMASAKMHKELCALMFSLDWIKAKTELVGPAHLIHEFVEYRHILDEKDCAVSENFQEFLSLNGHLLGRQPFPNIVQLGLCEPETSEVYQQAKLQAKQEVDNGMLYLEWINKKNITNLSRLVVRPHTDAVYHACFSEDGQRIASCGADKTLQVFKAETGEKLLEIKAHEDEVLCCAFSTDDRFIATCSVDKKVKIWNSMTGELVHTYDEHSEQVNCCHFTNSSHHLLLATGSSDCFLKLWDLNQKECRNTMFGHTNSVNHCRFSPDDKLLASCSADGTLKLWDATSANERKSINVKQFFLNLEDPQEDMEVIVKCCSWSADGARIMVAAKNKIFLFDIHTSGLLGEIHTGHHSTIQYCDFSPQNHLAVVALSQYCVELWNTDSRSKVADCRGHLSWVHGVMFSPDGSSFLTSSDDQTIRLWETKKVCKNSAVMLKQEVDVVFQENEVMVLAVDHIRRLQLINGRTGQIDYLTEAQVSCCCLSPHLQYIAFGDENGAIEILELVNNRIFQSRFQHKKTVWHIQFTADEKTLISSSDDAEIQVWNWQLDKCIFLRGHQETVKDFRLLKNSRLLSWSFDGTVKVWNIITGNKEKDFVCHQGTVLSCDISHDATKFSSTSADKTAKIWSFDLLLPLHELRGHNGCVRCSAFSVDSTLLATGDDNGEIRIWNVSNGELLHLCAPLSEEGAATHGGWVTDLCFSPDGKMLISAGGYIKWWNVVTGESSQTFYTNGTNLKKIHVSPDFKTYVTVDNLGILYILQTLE

[2] = target: T1, full-length human Apaf-1 (residues …); test: SEC; Apaf-1 incubated with CytC at a molar ratio of 1:2, Superdex-200 increase 5/150; 100 mM KCl, 20 mM HEPES pH 7.5, 5 mM DTT; fractions on SDS-PAGE; no dATP named; settings: both partners purified

- Ka [1]: ~2.04e+06 M⁻¹
- Kd [1]: ~490 nM
B1: untagged, full-length horse CytC (wild type, recombinant) (natural protein)
chain: not shown
notes: cytochrome c, horse (Equus caballus), untagged, full length; Purification as in Yu et al. 2001; also called cytochrome c; wild-type CytC; source: E. coli BL21 (DE3), coexpressed with the yeast heme lyase CYC3, purified

- binding result [2]: binds
B2: horse CytC K87W (natural protein)
chain: not shown
notes: cytochrome c, horse, untagged, full length, mutant K87W; source: E. coli BL21 (DE3), coexpressed with the yeast heme lyase CYC3, purified

Source: paper PMC4691890, “Atomic structure of the apoptosome: mechanism of cytochrome c- and dATP-mediated activation of Apaf-1” (Genes & Development, 2015)
